Laboratory results taken from the supplement of paper PMC9116672.
± gives the standard deviation of the averaged measurements or the uncertainty stated by the source.

Assays:
[1] = duplex melting temperature (HRM, EvaGreen); higher = more stable duplex
Method: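 Listed DNA strand annealed 1:1 with its complementary strand (95 °C 5 min, 0.1 °C/s to 20 °C). Melted in 1x NNE buffer (500 mM NaCl, 10 mM Na2HPO4, 1 mM EDTA, pH 7.0) with 1x EvaGreen on a LightCycler96 (37 to 97 °C, 0.1 °C/s). Tm is the peak of -dF/dT at the stated total duplex concentration; 4 replicates are averaged. PS oligos are non-stereospecific (Rp/Sp mixtures).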

[2] = duplex formation free energy ΔG50 (Van't Hoff fit of HRM Tm); higher = less stable duplex; conditions: temperature for dG: 50 °C, NaCl: 500 mM (unadjusted)
Method: (§1)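 Duplex of the listed DNA strand with its complement, in 1x NNE buffer (500 mM NaCl, pH 7.0) with 1x EvaGreen. ΔH and ΔS come from a Van't Hoff linear fit of 1/Tm against ln(CT/4) over 1-20 uM, using HRM Tm values.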

[3] = duplex formation enthalpy ΔH (Van't Hoff fit of HRM Tm); higher = less exothermic duplex formation; conditions: temperature for dG: 50 °C, NaCl: 500 mM (unadjusted)
Method: as §1

[4] = duplex formation entropy ΔS (Van't Hoff fit of HRM Tm); higher = smaller entropy loss on duplex formation; conditions: temperature for dG: 50 °C, NaCl: 500 mM (unadjusted)
Method: as §1

[5] = duplex concentration 1 µM, backbone: PO-PO (both strands phosphodiester DNA)
[6] = duplex concentration 1 µM, backbone: PS-PO (listed strand fully phosphorothioate, complement phosphodiester)
[7] = duplex concentration 1 µM, backbone: PS-PS (both strands fully phosphorothioate)
[8] = duplex concentration 2.5 µM, backbone: PO-PO (both strands phosphodiester DNA)
[9] = duplex concentration 2.5 µM, backbone: PS-PO (listed strand fully phosphorothioate, complement phosphodiester)
[10] = duplex concentration 2.5 µM, backbone: PS-PS (both strands fully phosphorothioate)
[11] = duplex concentration 5 µM, backbone: PO-PO (both strands phosphodiester DNA)
[12] = duplex concentration 5 µM, backbone: PS-PO (listed strand fully phosphorothioate, complement phosphodiester)
[13] = duplex concentration 5 µM, backbone: PS-PS (both strands fully phosphorothioate)
[14] = duplex concentration 7.5 µM, backbone: PO-PO (both strands phosphodiester DNA)
[15] = duplex concentration 7.5 µM, backbone: PS-PO (listed strand fully phosphorothioate, complement phosphodiester)
[16] = duplex concentration 7.5 µM, backbone: PS-PS (both strands fully phosphorothioate)
[17] = duplex concentration 10 µM, backbone: PO-PO (both strands phosphodiester DNA)
[18] = duplex concentration 10 µM, backbone: PS-PO (listed strand fully phosphorothioate, complement phosphodiester)
[19] = duplex concentration 10 µM, backbone: PS-PS (both strands fully phosphorothioate)
[20] = duplex concentration 15 µM, backbone: PO-PO (both strands phosphodiester DNA)
[21] = duplex concentration 15 µM, backbone: PS-PO (listed strand fully phosphorothioate, complement phosphodiester)
[22] = duplex concentration 15 µM, backbone: PS-PS (both strands fully phosphorothioate)
[23] = duplex concentration 20 µM, backbone: PO-PO (both strands phosphodiester DNA)
[24] = duplex concentration 20 µM, backbone: PS-PO (listed strand fully phosphorothioate, complement phosphodiester)
[25] = duplex concentration 20 µM, backbone: PS-PS (both strands fully phosphorothioate)
[26] = backbone: PO-PO (both strands phosphodiester DNA)
[27] = backbone: PS-PO (listed strand fully phosphorothioate, complement phosphodiester)
[28] = backbone: PS-PS (both strands fully phosphorothioate)

Sequence | duplex melting temperature [1, 5] [°C] | duplex melting temperature [1, 6] [°C] | duplex melting temperature [1, 7] [°C] | duplex melting temperature [1, 8] [°C] | duplex melting temperature [1, 9] [°C] | duplex melting temperature [1, 10] [°C] | duplex melting temperature [1, 11] [°C] | duplex melting temperature [1, 12] [°C] | duplex melting temperature [1, 13] [°C] | duplex melting temperature [1, 14] [°C] | duplex melting temperature [1, 15] [°C] | duplex melting temperature [1, 16] [°C] | duplex melting temperature [1, 17] [°C] | duplex melting temperature [1, 18] [°C] | duplex melting temperature [1, 19] [°C] | duplex melting temperature [1, 20] [°C] | duplex melting temperature [1, 21] [°C] | duplex melting temperature [1, 22] [°C] | duplex melting temperature [1, 23] [°C] | duplex melting temperature [1, 24] [°C] | duplex melting temperature [1, 25] [°C] | duplex formation free energy ΔG50 [2, 26] [kcal/mol] | duplex formation free energy ΔG50 [2, 27] [kcal/mol] | duplex formation free energy ΔG50 [2, 28] [kcal/mol] | duplex formation enthalpy ΔH [3, 26] [kcal/mol] | duplex formation enthalpy ΔH [3, 27] [kcal/mol] | duplex formation enthalpy ΔH [3, 28] [kcal/mol] | duplex formation entropy ΔS [4, 26] [cal/mol/K] | duplex formation entropy ΔS [4, 27] [cal/mol/K] | duplex formation entropy ΔS [4, 28] [cal/mol/K]
AATGTCGAACAGCAATT | 63.06 ± 0.22 | 56.56 ± 0.11 | 47.17 ± 0.34 | 65.17 ± 0.47 | 59.08 ± 0.19 | 50.7 ± 0.2 | 67.17 ± 0.36 | 61.32 ± 0.12 | 53 ± 0.2 | 68.45 ± 0.29 | 62.61 ± 0.066 | 54.22 ± 0.19 | 69.46 ± 0.13 | 63.46 ± 0.16 | 54.99 ± 0.23 | 70.74 ± 0.12 | 64.55 ± 0.19 | 56.34 ± 0.18 | 71.86 ± 0.12 | 65.45 ± 0.21 | 57.25 ± 0.45 | -12.5 ± 0.15 | -11.23 ± 0.064 | -9.264 ± 0.033 | -74.4 ± 2.7 | -74.3 ± 1.7 | -63.7 ± 2.3 | -192 ± 8 | -195 ± 5.2 | -169 ± 7
GAACTGCCACTACCAA | 63.2 |  | 48.68 ± 0.086 | 64.85 ± 0.39 | 58.65 ± 0.087 | 52.19 ± 0.14 | 67.25 ± 0.085 | 60.93 ± 0.068 | 54.589 ± 0.051 | 68.57 ± 0.17 | 62.25 ± 0.15 | 55.833 ± 0.044 | 69.531 ± 0.05 | 63.17 ± 0.12 | 56.65 ± 0.09 | 71 ± 0.09 | 64.25 ± 0.11 | 57.7 ± 0.15 | 71.922 ± 0.013 | 65.26 ± 0.12 | 58.53 ± 0.13 | -12.27 ± 0.11 | -11.04 ± 0.059 | -9.573 ± 0.046 | -69.8 ± 2 | -70.8 ± 1.6 | -65.1 ± 2.6 | -178 ± 5.8 | -185 ± 4.7 | -172 ± 7.9
CTACCAGCGGCGCCGTT |  | 68.2 ± 0.97 | 63.52 ± 0.26 | 78.66 ± 0.28 | 71.69 ± 0.5 | 66.46 ± 0.23 | 80.52 ± 0.35 | 74.62 ± 0.28 | 68.88 ± 0.19 | 81.81 ± 0.23 | 75.97 ± 0.31 | 70.02 ± 0.24 | 82.55 ± 0.18 | 76.92 ± 0.17 | 71 ± 0.18 | 83.52 ± 0.2 | 78.15 ± 0.26 | 72.23 ± 0.12 | 84.24 ± 0.2 | 79.05 ± 0.47 | 73.06 ± 0.32 | -16.7 ± 0.4 | -13.3 ± 0.16 | -12.69 ± 0.1 | -92.6 ± 4.5 | -66.1 ± 2.3 | -72.5 ± 1.8 | -235 ± 13 | -163 ± 6.5 | -185 ± 5.4
GTGGTACAAATGCGACC | 66.7 | 58.59 ± 0.28 | 49.91 ± 0.4 | 68.46 ± 0.35 | 61.19 ± 0.13 | 52.86 ± 0.053 | 70.27 ± 0.1 | 63.12 ± 0.081 | 54.891 ± 0.046 | 71.34 ± 0.084 | 64.14 ± 0.075 | 55.93 ± 0.084 | 72.06 ± 0.12 | 65.04 ± 0.1 | 56.63 ± 0.12 | 73.205 ± 0.062 | 66.133 ± 0.0075 | 57.534 ± 0.054 | 74.14 ± 0.12 | 66.91 ± 0.08 | 58.25 ± 0.083 | -13.92 ± 0.12 | -11.87 ± 0.036 | -9.816 ± 0.052 | -88 ± 1.9 | -80.9 ± 0.88 | -77.3 ± 2.9 | -229 ± 5.5 | -214 ± 2.6 | -209 ± 8.9
GGACGGCGTT |  |  | 39.971 ± 0.0066 |  |  | 43 ± 0.68 |  |  | 47.59 ± 0.14 |  |  | 50.3 ± 1.2 | 63.65 ± 0.51 |  | 50.8 ± 1.5 | 64.94 ± 0.51 | 61.1 ± 0.49 | 53.7 ± 0.47 | 65.94 ± 0.2 | 62.78 ± 0.33 | 53.7 |  |  |  |  |  |  |  |  | 
